The values below come from PMC5482323.

The target of assay [1] is basigin (CD147), Ig domains 1 and 2 of the short isoform (aa 22-205) (UniProt P35613). Description: SPR; BIAcore T200; basigin immobilised on a CM5 chip by amine coupling (950 RU); PfRH5 injected as a twofold dilution series from 2 uM, 120 s at 30 uL/min, 300 s dissociation; 20 C; 10 mM HEPES pH 7.4, 150 mM NaCl, 3 mM EDTA, 0.005% Tween-20, 2 mg/mL dextran, 1 mg/mL salmon sperm DNA; global 1:1 interaction model. In general terms: SPR reads the build-up and loss of mass on a sensor chip optically.

For a further assay, the target named is basigin (Homo sapiens) (UniProt P35613). Particulars: cited from earlier work.

Broadly, the Kd is the concentration at which binding is half-saturated. In assay [1], “Plasmodium falciparum reticulocyte-binding protein homolog 5 with C-terminal C-tag (EPEA) (from UniProt Q8IFM5 26-526) (domain or fragment)” returned a Kd of 390 nM. In assay [1], “Plasmodium falciparum reticulocyte-binding protein homolog 5 with C-terminal hexa-histidine tag (from UniProt Q8IFM5 26-526) (domain or fragment)” displayed a Kd of 830 nM. Turning to PfRH5 (from UniProt Q8IFM5), the Kd in the assay with basigin (Homo sapiens) was 1000 nM.
